# Measurements taken from the DeepSol protein solubility set.
# Experiment: soluble on expression in E. coli; label from the status in PepcDB or PDB records
row,Sequence,soluble on expression in E. coli
1,GMLHYTKEDLLELGAEITTREIYQQPDVWREAFEFYQAKREEIAAFLQEIADKHDYIKVILTGAGTSAYVGDTLLPYFKEVYDERKWNFNAIATTDIVANPATYLKKDVATVLVSFARSGNSPESLATVDLAKSLVDELYQVTITCAADGKLALQAHGDDRNLLLLQPAVSNDAGFAMTSSFTSMMLTTLLVFDPTEFAVKSERFEVVSSLARKVLDKAEDVKELVDLDFNRVIYLGAGPFFGLAHEAQLKILELTAGQVATMYESPVGFRHGPKSLINDNTVVLVFGTTTDYTRKYDLDLVREVAGDQIARRVVLLSDQAFGLENVKEVALGCGGVLNDIYRVFPYIVYAQLFALLTSLKVENKPDTPSPTGTVNRVVQGVIIHEYQK,soluble
2,GMLKLCGFAASNYYNKVKLALLEKNVPFEEVLAWIGETDTTATPAGKVPYMITESGSLCESEVINEYLEAAYPQTPLLPRDPMQAGKVREIVTFLELYLELTARELYPEAFFGGKVSDNVKERQLKLLSRYVPAFAKLAKFSPYVAGDTFTLADCAAAVHLPLVSSCTKIIYGKDLLADLPVKEYLKTLSERPSVQKVNADRKANTELMLSRNK,soluble
3,GMMYTNDNRIVMTLDAGGTNFVFSAIQGGKEIADPVVLPACADCLDKCLGNLVEGFKAIQAGLPEAPVAISFAFPGPADYQAGIIGDLPNFPSFRGGVALGPFLEDIFGIPVFINNDGSLFAYGEALTGVLPEINRRLREAGSTKRYKNLLGVTLGTGFGAGVVIDGELLRGDNAAGGYVWCLRNKKYPEYIVEESVSIRAVMRVYAERSGDAGARTPKEIFEIAEGIRPGNREAAIAAFEELGEMAGDALASAITLIDGLIVIGGGLSGASKYILPVLLKEMNAQTGMMDGARFGRLQKEVYDLDEEKSFAGFARGEAVEVLVPGTNRKVGYDPCKRIGVTFSKQGANRSIAMGAYVFALNHLSK,soluble
4,GMNVDFINPFLDSLLNVLKTMANMELKPGKPNLKKDNLAKGDVSGLIGMVGPQTKGSLSITFEETLILEIMNKMLGEKPESIDEEVTDLVGELTNMVTGGAKNLLSDKGYEFDMATPIVVSGKNHTIAHKSDGQKIIMPFSSIYGTAYIEICFEG,soluble
5,GMPTDDIVQLLKGQEEAWNRGDLDAYMQGYWQNEQLMLISNGKFRNGWDETLAAYKKNYPDKESLGELKFTIKEIKMLSNYAAMVVGRWDLKRLKDTPTGVFTLLVEKIDDRWVITMDHSSD,soluble
6,GMRNELPPENAYRILESGPIVLVSTRGADGRANLMTMGFHMMMQHEPPLVGAIIGPWDYSHQALSETGECVLAVPTVDLAETVVDIGNCSGDALDKFGHFGLTPVPAQTVDAPLVRQCWANLECRVVDDGWARRYNLWVLEVQRIWIDTARKETRLIHHQGDGRFSVDGDTLDLGERMTKWRHLMG,soluble
7,GMSEALSDSGLPPVQRVVTGHDAHGRAVFKSEDVTPTRMIPSGDASFLLVWTTATVPADNNDETDGRQREAGLTLDGGSVIRVVDMLPGKESPMHRTNSIDYGIVLEGEIELELDDGAKRTVRQGGIIVQRGTNHLWRNTTDKPCRIAFILIEAPAYLHNGQPLPEDKPDHK,soluble
8,GMSEPEVPFKVVAQFPYKSDYEDDLNFEKDQEIIVTSVEDAEWYFGEYQDSNGDVIEGIFPKSFVAVQG,soluble
9,GMTNVGRPIETHAITVGQGSDARSIAALVRAPAQDERPTCIWLGGYRSDMTGTKALEMDDLAASLGVGAIRFDYSGHGASGGAFRDGTISRWLEEALAVLDHFKPEKAILVGSSMGGWIALRLIQELKARHDNPTQVSGMVLIAPAPDFTSDLIEPLLGDRERAELAENGYFEEVSEYSPEPNIFTRALMEDGRANRVMAGMIDTGCPVHILQGMADPDVPYQHALKLVEHLPADDVVLTLVRDGDHRLSRPQDIDRMRNAIRAMIEPRP,soluble
10,GMYAVPILNVYDFEVKKDKETSYKSATEDYVNKTMGVEQGVLGLFAATDERDKTTSYIVEIYNDYLAFSNHTKNQASKDFKAVIPQIAEGNLNSAEIDVQIAKDKKIEQNDNTFAVYTVIDVKPENDKEFAEIIKNIVETTFNEEGTLLVYLGTDRRNFNKWCLFEVYKDIDSYLNHRSAKYFKDYITQTKDMIAGKKRAELQVLKIENKGGLDYKKLY,soluble
11,GPEQVLDRASMHLANGLLGNPDSAAGLEVLLGGLKLRFVSGSAVAVTGAEGMVTLDGTELPLNKAVRVPPGAVLELGPAMFGIRYYLAVQGGISAQGEAAQGEAIRAGAALTFGRPNNHGSPEVNHPARRALDPERPVVARVSRGPQAQNDDAGTWLRLTSEPWILSPESDRAGARLVGRPLDVTSAPIPQAQPLVSGSVLLPSSGLPVIALAGHPDTSQSPVIAVVRDEDLDVLGQARPGQMVHLLG,not soluble
12,GPGMASSPRPKMDAILTEAIKACFQKSGASVVAIRKYIIHKYPSLELERRGYLLKQALKRELNRGVIKQVKGKGASGSFVVVQKSRKT,soluble
13,GPGSMAALRYLLAPRRALVTPFLRSVTCVSSGGIFSSQRPHTFPVLWHAVRTHSNDSGERSKPLTLHVQLPCGTMRTLTAYEGQTLLDVAMEHGLPIEGACGGSCACSTCHVYLENDEAMELFDEATDEENDMLDMAFFPQSTSRLGCQLTLRQQKHDGLKISLPKATRNMYVDGHTITPHH,not soluble
14,GPGSMADAYRERALPTLSVLERLRCLRREHVPYASHYCEENAYKLVEALYRDFSLPDHAVFAVFISNDCKSTPVWKQRLGNGRCPLMWDYHVITLVNVGAGDEGGMWAFDQDTTLPFPCEGLRYIEESFHPEMQLDDKYRQRFRVVPGRDYLEYFSSDRSHMKDFDAAQPPWPLIRGCRAPSDMRLGLYVDVHQSSSGEDVKKEQGCGKILSIAELISFVSP,soluble
15,GPGSMAGKGNAKVVVTHPKSRKVRQLQRQSRREKRISEQKGKRNAKAALEAARFFWFREQCLALGRTKLAFSREEAQVLTEQYLKRNDEEIVALKSMRNPTAGRIKILEAMKTSEADDFNSSKGIVIPDITNSDNLEILTSIWDGRADTAGVVRRVGLTRTGVSPAAPAVTELEGKLLTIDEVRERSIDFTSRKARKFQTMKRVQSVKKTPTAEDVWLRSKKRGVDLQAKRLRQGREAVLKTRRAN,soluble
16,GPGSMAKYFVPDTTFGLDAECAVCCCLWTDPVEISECQHIFCRGCVEGLETCPVCCGPVTRLDTPGKFILRLLQRTQGSCSACLWKGTYSDFKEKHFECLEADEVQSSDEGKILATTECVAMREYYLEGSGAKPEGSAPSPAAVDSFLVHPVAAVNAGSPHAQPFADATNNGAPVADAHLTCEQRAQWRQSLTSTARDYGMSDREYRELMECFPDFAVPVPDRGMAPELRWRGACRLLRFLNYPNHPDDVKNLFEMADRDALTESVPFHVLCLWLMLNRRNPAQWYHMTAEPYEQFLKVAQLLDVEATGLFQLDQCRILAEQYFERDVCDAEWLRIKRLLRSKDAEIRQSFLSSANRRRVNLDESFALPSAKLPLHDVLCAFTRHVDALKKEQQQQSEAERVQADYVRRIKRIVDFYEPDAVNQLDATLQKFTGEEESLLMTLTAMYGPEPP,soluble
17,GPGSMAVNILKAGFPVSVWNRTASKCDDLVAAGATACATPAELAAASDVVFTNLSDSPDVMEVVFGPNGVAAGICEGAIFVDNSTIKPSVAQEIARRLWKEKKVRALDAPVSGGDIGARNGTLTVMVGGDAAALATVLPVLLAVGKKVTHIGDCGAGQVCKAANQIMVAAQMVALGEILVFCEKCGVSGPTVIEAIKSGSAQCWTLDVKPDRLFAGNRAPGFKAALQSKDMGIVMDTAKEFGVPLPSTAVNTQLFQAMVQNGDGDRDNSAVVSVLERMANVHISEAERE,not soluble
18,GPGSMDAGSDEAVQKKMQEFLSKDAMEELRNIGDRTESRVRHGLLPRDYQQQQHQKDYQTANVTHEEEVNSYIQQRRTWRENVFLLRDFEYWRLRAEYYPYVRRGDEQNDNFFIRGIACHPRLSDYPMCRKPIQDYFVCRDKNKILQLFNLCAPMKEQFCACINEVFVKNHERGDKKFNAQRNEYFEEQRNRRLSKMMAHVEDSMEKRKKLQD,not soluble
19,GPGSMGCLPPDDLGPFVSDHVDVNEAEPVPLSDEDLDLLVRYSLLPTDVVREAWAVFNHYRVVECLRAQQRHYAMTGHLPQKSTVSMSARPFPVAECGGKLFTTPVRAASGDCNAVKEEEKAPVSPRDCVTGENSECRKEEVEVAVLGAEGLRQFFEDTGAPIPTLEVTSFLRRMSQPPVEYLLYQRALEEKLTGAAAAAAPPREESPGVGQRKKSPQTDQSKHNKGQSVGRGQRPNNNTKSLNILVDDHIDLLEEQRGSGGETVTFPLFLYILSNAELGKNFTADVRESEINTLFRTLDVDGDGVVSVDDIQRLLEERCSLGDTLYEDRDIRYLRGMNLTELKAALRECDVDEDGAVRLNDFRSVLSS,soluble
20,GPGSMGLTQDQTQRVKTAFLSYAQGQPKVSEAMMDQLICGAIPGLSWEQLQAKKAVRKVGADGYDLGAFFAMVNSDPAYIAFIQQHFPPAPPEQKEPEVDALALKTAKGF,soluble
21,GPGSMGSGYLKRKRQRQELLNDFYSALSLSSFDTTSGQFSKLVTRTVYHYPSSLPFPVLLDDDFPAEPYRSRNKDIKSAIHWGQRKLLLSEIQLLSMYCRPEISYHIVYAGAAPGTHLAFLDEMFSCRHTWELIDPGQFDRAVLEPRANFRLRNEFFTNATAYGINARRLTEVLPALGFVYQNVAVDSVQVDKKAIHEQLQDIVGTLDVARGTEDIPAMYEAPLSLPKGLELLAQVALERNKPLLFISDIRSGSVALPNFEDHVAENMRAQECWTNILHGEHSMLKFRLPYTSKSTKFGGQGAVRETLLIREDGTVPYLRGDMLLPIWTRPTSTEGRLVVPQGAFQKDYNVAHVEDQFFFFNSSVREQVHFNHLVAHDSELDHHYDAAAEVHCLLTYLRFIRPELKTAKTGELRKEVLRVAHSITAHLGITFEDAIRRRDALMINHAKKSQNKAVEGHKDDAYGDEEAEEQEAKSAASKVRAGSNESAAAADGAATSTTAPVPPSEWEQTTRLMVRLSNYDRNRSVWSRNVREEEHSKTSGFWVTTKMPQA,not soluble
22,GPGSMGTRQSSASAAPAPQASNGALHLNKLNVPTPPRIAATESPFGSNTPLAKTPTPTAATATATAAVSGEHAKRFQEALRVDSVDMALLRELSWQGCPVALRYEAWMFLTGCWTAQAATRQATVLRRRVEYAAYIHSSYGIVDWDAVCAMVDSGVDTAVHRSTLKLLEHTADAPQVAPPSGTSHSLLRVAPLTTGDSTAMAAKEAAAALPPSLSQRPDGRQSASLPLEDVRSRLPQNTSGSDAPQPSQLSPPQSADIRSASPSLGIVPAPSDSSFRASASAGFTDTAGTGPASHPSIFAPPLPGFATLGLSNVVAATAAPPAASGGAGGATGHQLSASTMLGSKELQTLKQIRKDIPRMSGGHCYLRHPRVQGSIERILFIWSLRHPACGYVQGMNDLVVPFMGVVLGYRFCPTHSVTELHAYTEDIFDDLWSVSAVSVTQWINEVEADVYWMTSYLLNTMQDNYTSSHAGITSMMRHLAAVVQVADPPLYHRLVNVLQLHFEQFSFRWMNCLLIRELTETQSLRLLDAYLSDEERRWSVTHVYVCAALLLRWGSQLMAFCEDYISVMKLLQEPPTEQLSLRDMQDVLSEGFVLQNLYEASLKRLSTTAE,not soluble
23,GPGSMHFPALFPEPLATAHASRLHPFPWSSSYESIFLCPPTSLCSSAASMTQPTLTEDELDDALGLAIRAANTAAFISNSVIDDKTNNIVEAQTRNNPNDLVTQCEKHCKEEVLNILRVGTPSYAILSDDMHSEAVLGDGPTWIVGPIDGTVSFKHGLFDFCISIALALRKEPILGVVCAPRLQEVFTAVNNRGAFSNGQRIHVSLVDSLRQSVVLLHHSGTRSDAAVRSVAAMQAELAKLPVQGLRCNGSAALDMCLVAAGRAELFWKAGVNPWNVAAGVIIVREAGGVVHDVESTDSFDLTCRSVCCGCSLDVTKHGVELSLKHNYRSSVLNTSS,not soluble
